Reference: the RNAGym collection of RNA variant scans (doi:10.7554/elife.80360)

B1: Hammerhead Ribozyme (parent)
chain: ACCGGAUGUGCUUUCCGGUCUGAUGAGUCCGUGAGGACGAAACAG

Variants of: B1
Assay: self-cleavage, relative activity (ratio to wild type); higher = more cleavage; co-transcriptional

Row | Variant | self-cleavage
1 | ACCGGAUGUGCUUUCCGCUCUGAUGAGUCCGUGAGGACGAAACAC | 0.383
2 | ACCGGAUGUGCUUUCCGCUCUGAUGAGUCCGUGAGGACGAAACAU | 0.374
3 | ACCGGAUGUGCUUUCCGCACUGAUGAGUCCGUGAGGACGAAACAG | 0.349
4 | ACCGGAUGUGCUUUCCGCCCUGAUGAGUCCGUGAGGACGAAACAG | 0.375
5 | ACCGGAUGUGCUUUCCGCGCUGAUGAGUCCGUGAGGACGAAACAG | 0.224
6 | ACCGGAUGUGCUUUCCGCUCAGAUGAGUCCGUGAGGACGAAACAG | 0.333
7 | ACCGGAUGUGCUUUCCGCUCCGAUGAGUCCGUGAGGACGAAACAG | 0.284
8 | ACCGGAUGUGCUUUCCGCUCGGAUGAGUCCGUGAGGACGAAACAG | 0.285
9 | ACCGGAUGUGCUUUCCGCUCUGAAGAGUCCGUGAGGACGAAACAG | 0.617
10 | ACCGGAUGUGCUUUCCGCUCUGACGAGUCCGUGAGGACGAAACAG | 0.477
11 | ACCGGAUGUGCUUUCCGCUCUGAGGAGUCCGUGAGGACGAAACAG | 0.365
12 | ACCGGAUGUGCUUUCCGCUCUGAUGAGACCGUGAGGACGAAACAG | 0.415
13 | ACCGGAUGUGCUUUCCGCUCUGAUGAGCCCGUGAGGACGAAACAG | 0.263
14 | ACCGGAUGUGCUUUCCGCUCUGAUGAGGCCGUGAGGACGAAACAG | 0.44
15 | ACCGGAUGUGCUUUCCGCUCUGAUGAGUCCGAGAGGACGAAACAG | 0.554
16 | ACCGGAUGUGCUUUCCGCUCUGAUGAGUCCGCGAGGACGAAACAG | 0.446
17 | ACCGGAUGUGCUUUCCGCUCUGAUGAGUCCGGGAGGACGAAACAG | 0.503
18 | ACCGGAUGUGCUUUCCGUUCUGAUGAGUCCGUGAGGACGAAACAG | 0.875
19 | ACCGGAUGUGCUUUCCGUUCUGCUGAGUCCGUGAGGACGAAACAG | 0.367

Row | Variant | self-cleavage
20 | ACCGGAUGUGCUUUCCGUUCUGGUGAGUCCGUGAGGACGAAACAG | 0.288
21 | ACCGGAUGUGCUUUCCGUUCUGUUGAGUCCGUGAGGACGAAACAG | 0.342
22 | ACCGGAUGUGCUUUCCGUUCUGAUGCGUCCGUGAGGACGAAACAG | 0.328
23 | ACCGGAUGUGCUUUCCGUUCUGAUGGGUCCGUGAGGACGAAACAG | 0.339
24 | ACCGGAUGUGCUUUCCGUUCUGAUGUGUCCGUGAGGACGAAACAG | 0.368
25 | ACCGGAUGUGCUUUCCGUUCUGAUGAGUCCGUGCGGACGAAACAG | 0.407
26 | ACCGGAUGUGCUUUCCGUUCUGAUGAGUCCGUGGGGACGAAACAG | 0.493
27 | ACCGGAUGUGCUUUCCGUUCUGAUGAGUCCGUGUGGACGAAACAG | 0.51
28 | ACCGGAUGUGCUUUCCGUUCUGAUGAGUCCGUGAGGCCGAAACAG | 0.567
29 | ACCGGAUGUGCUUUCCGUUCUGAUGAGUCCGUGAGGGCGAAACAG | 0.629
30 | ACCGGAUGUGCUUUCCGUUCUGAUGAGUCCGUGAGGUCGAAACAG | 0.494
31 | ACCGGAUGUGCUUUCCGUUCUGAUGAGUCCGUGAGGACGCAACAG | 0.394
32 | ACCGGAUGUGCUUUCCGUUCUGAUGAGUCCGUGAGGACGGAACAG | 0.357
33 | ACCGGAUGUGCUUUCCGUUCUGAUGAGUCCGUGAGGACGUAACAG | 0.345
34 | ACCGGAUGUGCUUUCCGUUCUGAUGAGUCCGUGAGGACGACACAG | 0.427
35 | ACCGGAUGUGCUUUCCGUUCUGAUGAGUCCGUGAGGACGAGACAG | 0.375
36 | ACCGGAUGUGCUUUCCGUUCUGAUGAGUCCGUGAGGACGAUACAG | 0.385
37 | ACCGGAUGUGCUUUCCGUUCUGAUGAGUCCGUGAGGACGAACCAG | 0.371
38 | ACCGGAUGUGCUUUCCGUUCUGAUGAGUCCGUGAGGACGAAGCAG | 0.37

Row | Variant | self-cleavage
39 | ACCGGAUGUGCUUUCCGUUCUGAUGAGUCCGUGAGGACGAAUCAG | 0.339
40 | ACCGGAUGUGCUUUCCGUUCUGAUGAGUCCGUGAGGACGAAACCG | 0.431
41 | ACCGGAUGUGCUUUCCGUUCUGAUGAGUCCGUGAGGACGAAACGG | 0.942
42 | ACCGGAUGUGCUUUCCGUUCUGAUGAGUCCGUGAGGACGAAACUG | 0.368
43 | ACCGGAUGUGCUUUCCGUUAUGAUGAGUCCGUGAGGACGAAACAG | 0.326
44 | ACCGGAUGUGCUUUCCGUUGUGAUGAGUCCGUGAGGACGAAACAG | 0.382
45 | ACCGGAUGUGCUUUCCGUUUUGAUGAGUCCGUGAGGACGAAACAG | 0.437
46 | ACCGGAUGUGCUUUCCGUUCUGAUGAGUACGUGAGGACGAAACAG | 0.538
47 | ACCGGAUGUGCUUUCCGUUCUGAUGAGUGCGUGAGGACGAAACAG | 0.575
48 | ACCGGAUGUGCUUUCCGUUCUGAUGAGUUCGUGAGGACGAAACAG | 0.547
49 | ACCGGAUGUGCUUUCCGUUCUGAUGAGUCAGUGAGGACGAAACAG | 0.556
50 | ACCGGAUGUGCUUUCCGUUCUGAUGAGUCGGUGAGGACGAAACAG | 0.493
51 | ACCGGAUGUGCUUUCCGUUCUGAUGAGUCUGUGAGGACGAAACAG | 0.849
52 | ACCGGAUGUGCUUUCCGUUCUGAUGAGUCCGUGAGGAAGAAACAG | 0.527
53 | ACCGGAUGUGCUUUCCGUUCUGAUGAGUCCGUGAGGAGGAAACAG | 0.442
54 | ACCGGAUGUGCUUUCCGUUCUGAUGAGUCCGUGAGGAUGAAACAG | 0.661
55 | ACCGGAUGUGCUUUCCGUUCUGAUGAGUCCGUGAGGACGAAAAAG | 0.286
56 | ACCGGAUGUGCUUUCCGUUCUGAUGAGUCCGUGAGGACGAAAGAG | 0.373
57 | ACCGGAUGUGCUUUCCGUUCUGAUGAGUCCGUGAGGACGAAAUAG | 0.402
